Experimental data as given in paper PMC10171807 (Science Advances, 2023).
Values joined by “and” are separate entries in the source; they are usually repeats but may differ in a detail not shown here. Equal values may be shown once. Read-outs that look alike come from different tables or passages of the source.

Columns and labels:
[1] = target: _(MPPΔ3)Skd3_WB (MPP-cleaved Skd3 without the C-terminal hydrophobic residues of the inhibitory sequence, with E455Q) (human); experiment: mass photometry
[2] = target: _(MPPΔ3)Skd3_WB (MPP-cleaved Skd3 without the C-terminal hydrophobic residues of the inhibitory sequence, with E455Q) (human); experiment: mass photometry; remark: listed apart in the source
[3] = target: FITC-casein (UniProt P02662); experiment: fluorescence polarisation
Sequence of FITC-casein (P02662 16-214): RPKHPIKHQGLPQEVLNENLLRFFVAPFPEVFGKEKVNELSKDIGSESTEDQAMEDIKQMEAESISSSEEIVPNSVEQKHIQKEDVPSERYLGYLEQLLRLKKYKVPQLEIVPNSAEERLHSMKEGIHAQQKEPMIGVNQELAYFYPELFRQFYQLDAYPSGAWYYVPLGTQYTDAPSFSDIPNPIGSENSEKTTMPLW

[4] = target: the molecule itself; experiment: electron microscopy, 2D class averages
[5] = target: FITC-casein (UniProt P02662); experiment: fluorescence polarisation; remark: listed apart in the source
[6] = target: the molecule itself; experiment: mass photometry

Row | Kd [3] | Molecule | stoichiometry N [6] | further results
1 | 3.7 µM | _(PARL)Skd3_ARD (isolated ankyrin repeat domain of Skd3) (domain or fragment) VTTGSLGEPQWLRVATGGRPGTSPALFSGRGAATGGRQGGRFDTKCLAAATWGRLPGPEETLPGQDSWNGVPSRAGLGMCALAAALVVHCYSKSPSNKDAALLEAARANNMQEVSRLLSEGADVNAKHRLGWTALMVAAINRNNSVVQVLLAAGADPNLGDDFSSVYKTAKEQGIHSLEDGGQDGASRHITNQWTSALEFRRWLGLPAGVLITREDDFNNRLNNRASFKGCTALHYAVLADDYRTVKELLDGGANPLQRNEMGHTPLDYAREGEVMKLLRTSEAKYQEKQR | – | –
2 | 3.4 µM | _(PARL)Skd3 (PARL-cleaved Skd3, human ClpB), wild type (enzyme, UniProt Q9H078 127-707, looked up) YSKSPSNKDAALLEAARANNMQEVSRLLSEGADVNAKHRLGWTALMVAAINRNNSVVQVLLAAGADPNLGDDFSSVYKTAKEQGIHSLEDGGQDGASRHITNQWTSALEFRRWLGLPAGVLITREDDFNNRLNNRASFKGCTALHYAVLADDYRTVKELLDGGANPLQRNEMGHTPLDYAREGEVMKLLRTSEAKYQEKQRKREAEERRRFPLEQRLKEHIIGQESAIATVGAAIRRKENGWYDEEHPLVFLFLGSSGIGKTELAKQTAKYMHKDAKKGFIRLDMSEFQERHEVAKFIGSPPGYVGHEEGGQLTKKLKQCPNAVVLFDEVDKAHPDVLTIMLQLFDEGRLTDGKGKTIDCKDAIFIMTSNVASDEIAQHALQLRQEALEMSRNRIAENLGDVQISDKITISKNFKENVIRPILKAHFRRDEFLGRINEIVYFLPFCHSELIQLVNKELNFWAKRAKQRHNITLLWDREVADVLVDGYNVHYGARSIKHEVERRVVNQLAAAYEQDLLPGGCTLRITVEDSDKQLLKSPELPSPQAEKRLPKLRLEIIDKDSKTRRLDIRAPLHPEKVCNTI | – | stoichiometry N [4]: 6 and 7; Kd [5]: 0.86 µM

Further lines, the molecule ahead of its results:

Row | Molecule | Kd [3] | stoichiometry N [6] | further results
3 | _(MPPΔ3)Skd3_WB (MPP-cleaved Skd3 without the C-terminal hydrophobic residues of the inhibitory sequence, with E455Q) (enzyme) | – | – | stoichiometry N [1]: 6; stoichiometry N [2]: 12
4 | Skd3_L1,L2GH_WB (_(PARL)Skd3 with the L1GH and L2GH turn loop mutations and E455Q) (enzyme) YSKSPSNKDAALLEAARAGHMQEVSRLLSEGADVNAKHRLGWTALMVAAINGHNSVVQVLLAAGADPNLGDDFSSVYKTAKEQGIHSLEDGGQDGASRHITNQWTSALEFRRWLGLPAGVLITREDDFNNRLNNRASFKGCTALHYAVLADDYRTVKELLDGGANPLQRNEMGHTPLDYAREGEVMKLLRTSEAKYQEKQRKREAEERRRFPLEQRLKEHIIGQESAIATVGAAIRRKENGWYDEEHPLVFLFLGSSGIGKTELAKQTAKYMHKDAKKGFIRLDMSEFQERHEVAKFIGSPPGYVGHEEGGQLTKKLKQCPNAVVLFDQVDKAHPDVLTIMLQLFDEGRLTDGKGKTIDCKDAIFIMTSNVASDEIAQHALQLRQEALEMSRNRIAENLGDVQISDKITISKNFKENVIRPILKAHFRRDEFLGRINEIVYFLPFCHSELIQLVNKELNFWAKRAKQRHNITLLWDREVADVLVDGYNVHYGARSIKHEVERRVVNQLAAAYEQDLLPGGCTLRITVEDSDKQLLKSPELPSPQAEKRLPKLRLEIIDKDSKTRRLDIRAPLHPEKVCNTI | – | 6 and 12 | ratio of dodecamer relative to hexamer [6]: 0.41 ± 0.12
5 | _(PARL)Skd3_WB (PARL-cleaved Skd3 with the Walker B mutation E455Q) (enzyme, human, UniProt Q9H078 127-707, looked up) YSKSPSNKDAALLEAARANNMQEVSRLLSEGADVNAKHRLGWTALMVAAINRNNSVVQVLLAAGADPNLGDDFSSVYKTAKEQGIHSLEDGGQDGASRHITNQWTSALEFRRWLGLPAGVLITREDDFNNRLNNRASFKGCTALHYAVLADDYRTVKELLDGGANPLQRNEMGHTPLDYAREGEVMKLLRTSEAKYQEKQRKREAEERRRFPLEQRLKEHIIGQESAIATVGAAIRRKENGWYDEEHPLVFLFLGSSGIGKTELAKQTAKYMHKDAKKGFIRLDMSEFQERHEVAKFIGSPPGYVGHEEGGQLTKKLKQCPNAVVLFDQVDKAHPDVLTIMLQLFDEGRLTDGKGKTIDCKDAIFIMTSNVASDEIAQHALQLRQEALEMSRNRIAENLGDVQISDKITISKNFKENVIRPILKAHFRRDEFLGRINEIVYFLPFCHSELIQLVNKELNFWAKRAKQRHNITLLWDREVADVLVDGYNVHYGARSIKHEVERRVVNQLAAAYEQDLLPGGCTLRITVEDSDKQLLKSPELPSPQAEKRLPKLRLEIIDKDSKTRRLDIRAPLHPEKVCNTI | 3.6 µM | 6 | –
